Legend:
[1] = target: FCA-mScarlet-I (Arabidopsis thaliana); assay: single-particle tracking with stepwise photobleaching (SlimVar microscopy); fluorescent FCA fusions in nuclei of living Arabidopsis root tissue, 10 ms/frame; molecules per tracked particle from initial intensity over single-molecule brightness; control and sof78 backgrounds for FCA-eGFP
[2] = target: MBP-PrLD (purified recombinant FCA C-terminal half containing prion-like domains) (Arabidopsis); assay: SEC-MALS; Superdex-200 10/300 GL, 40 mM Tris-HCl pH 7.4, 500 mM NaCl; protein at 2 mg/mL; self-association

Substance	stoichiometry N [1] [molecules]	stoichiometry N [2] [molecules]
FCA-mScarlet-I (natural protein)	4	
MBP-PrLD (purified recombinant FCA C-terminal half containing prion-like domains) (domain or fragment)		> 100

Source: article PMC11962161
